Assay results: US20210008161A1, “METHODS AND COMPOSITIONS FOR IMPROVED HOMOLOGY DIRECTED REPAIR” (CRISPR THERAPEUTICS AG, priority 2019, published 2021)

System: CD34-expressing LT-HSPCs
Assay: Indel formation at HBB locus by TIDE analysis
Type: cell-based, human
Conditions: RNP of Cas9 and R02 gRNA only; TIDE; FIG. 11
Description: Editing efficiency at the HBB locus was evaluated by measuring indel formation by TIDE analysis. […] This group had 1.7-fold reduction in INDEL frequency relative to cells treated with RNP+AAV,

B1: R02 gRNA: sgRNA targeting the HBB locus (SEQ ID NO: 17), used as RNP with Cas9 (nucleic acid)
guide: CNUNUNGCCCCACAGGGCAGUAAGUUUUAGAGCUAGAAAUAGCAAGUUAAAAUAAGGCUAGUCCGUUAUCAACUUGAAAAAGUGGCACCGAGUCGGUGCUNUNUNU
modifications: Synthetic gRNA-related, HBB sgRNA; modified_base (1)..(6) every c and u is a 2′ O-methyl phosphorothioate nucleotide; (2)..(2) n is a phosphorothioate nucleotide; (4)..(4) n is a phosphorothioate nucleotide; (6)..(6) n is a phosphorothioate nucleotide; modified_base (100)..(104) every u is a 2′ O-methyl phosphorothioate nucleotide; (101)..(101) n is a phosphorothioate nucleotide; (103)..(103) n is
B1 was tested, and the indel formation was 94%.
